Data published in patent US20110129485A1 (UNIVERSITY OF QUEENSLAND, published 2011).

Molecular target: T1, bovine serum albumin (BSA) (bovine, UniProt P02769 25-607)
T1 construct: Control protein for non-specific adsorption to the ASF-SPR chip
Test: SPR, ASF-immobilised chip, BSA in solution
Description: The ASF-SPR chip was prepared starting with a 50 nm gold-coated SF10 glass substrate. The first SAM layer was self-assembled using a mixed ethanolic solution of 5×10⁻⁵ M cysteamine (NH₂ terminated thiol) (Sigma-Aldrich, Sydney, Australia) and 4.5×10⁻⁴ M mercaptoethanol (OH terminated thiol, as spacers) (Sigma-Aldrich, Sydney, Australia) for 15 h at room temperature. The second layer of biotin was introduced by coupling biotin-hexanoic acid (Sigma-Aldrich, Sydney, Australia) with cysteamine by activating 1 mg/ml biotin-hexanoic acid in PBS (prepared from a 6 mg/mL stock in dimethylformamide (DMF, Sigma-Aldrich, Sydney, Australia) with 4 mg/mL of 1-(3-dimethylaminopropy)-3-ethylcarbodiimide hydrochloride (EDC, Sigma-Aldrich, Sydney, Australia) and 0.7 mg/mL of N-hydroxysuccinimide (NHS, Sigma-Aldrich, Sydney, Australia). The third layer (of SA) was constructed by loading 45 μg/mL of SA (Invitrogen, Mount Waverley, Australia) into the flow cell, which specifically binds to biotin. This step took about 10 min to reach equilibrium. The SA layer was then activated by 4 mg/mL EDC and 0.7 mg/mL NHS for 5 min, enabling its carboxylic acid residue to react with the primary amino group of ASF (Sigma-Aldrich, Sydney, Australia). 1.0 mg/mL ASF was used in this step to prepare the fourth layer. […]

T1 sequence (P02769 25-607 limits assumed): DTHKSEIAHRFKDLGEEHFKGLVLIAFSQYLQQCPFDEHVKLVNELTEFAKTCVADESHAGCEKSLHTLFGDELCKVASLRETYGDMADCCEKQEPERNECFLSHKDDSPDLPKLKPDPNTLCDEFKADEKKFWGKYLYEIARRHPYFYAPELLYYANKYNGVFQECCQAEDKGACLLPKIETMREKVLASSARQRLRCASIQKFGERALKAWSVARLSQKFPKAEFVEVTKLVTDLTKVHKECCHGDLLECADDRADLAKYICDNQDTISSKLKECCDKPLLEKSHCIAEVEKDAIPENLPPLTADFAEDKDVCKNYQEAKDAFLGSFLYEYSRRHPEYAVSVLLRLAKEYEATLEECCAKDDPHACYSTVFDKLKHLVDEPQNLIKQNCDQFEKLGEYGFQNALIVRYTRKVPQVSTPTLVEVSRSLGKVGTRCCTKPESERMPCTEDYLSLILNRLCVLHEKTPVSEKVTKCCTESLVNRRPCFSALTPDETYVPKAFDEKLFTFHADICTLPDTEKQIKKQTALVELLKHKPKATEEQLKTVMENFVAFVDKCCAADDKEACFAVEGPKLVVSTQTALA

binding result: no binding (tested: 4.4 mg/mL)
B1: asialofetuin (ASF) (other, UniProt P12763 19-359, looked up)
chain: IPLDPVAGYKEPACDDPDTEQAALAAVDYINKHLPRGYKHTLNQIDSVKVWPRRPTGEVYDIEIDTLETTCHVLDPTPLANCSVRQQTQHAVEGDCDIHVLKQDGQFSVLFTKCDSSPDSAEDVRKLCPDCPLLAPLNDSRVVHAVEVALATFNAESNGSYLQLVEISRAQFVPLPVSVSVEFAVAATDCIAKEVVDPTKCNLLAEKQYGFCKGSVIQKALGGEDVRVTCTLFQTQPVIPQPQPDGAEAEAPSAVPDAAGPTPSAAGPPVASVVVGPSVVAVPLPLHRAHYDLRHTFSGVASVESSSGEAFHVGKTPIVGQPSIPGGPVRLCPGRIRYFKI
modifications: three triantennary N-link oligosaccharide chains with terminal N-acetyllactosamine (LacNAC) residues and three O-linked disaccharide chains (desialylated)
notes: Immobilised on a home-made SPR chip (thiol-SAM/biotin/streptavidin/ASF) by EDC/NHS coupling to streptavidin; also called asiolofetuin
